Data from patent publication US20210139559A1 (XL PROTEIN, published 2021).
Like-named read-outs stand apart in the source and are kept apart here.

Legend:
[1] = biological target: T1, human VEGF165 ligand (human, UniProt P15692-4 27-191); test: cell-based or functional assay
[2] = biological target: T1, human VEGF165 ligand; test: serial dilution mixed with 50 pM human VEGF165 in solution, unbound VEGF165 measured by ELISA
Procedure: The amount of unbound VEGF₁₆₅ was then measured by a human VEGF-specific ELISA (Human VEGF DuoSet ELISA kit, R&D Systems, CAT. No. DY293B-05).
(§1) Unbound human VEGF₁₆₅ or PDGF-BB was calculated using 4 parameters curve with the absorbance value. And the IC₅₀ of the tested fusion proteins and the reference was calculated using 4 parameters curve with unbound human VEGF₁₆₅ or PDGF-BB.

[3] = biological target: T2, human PDGF-BB ligand (human, UniProt P01127 82-190); test: serial dilution mixed with 1 ng/ml human PDGF-BB in solution, unbound PDGF-BB measured by ELISA
T2 sequence (P01127 82-190): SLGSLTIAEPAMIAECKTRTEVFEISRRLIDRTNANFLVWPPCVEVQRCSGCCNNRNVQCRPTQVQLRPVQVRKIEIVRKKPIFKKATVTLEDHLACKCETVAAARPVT
Procedure: The amount of unbound PDGF-BB was then measured by a human PDGF-BB-specific ELISA (Human PDGF-BB DuoSet ELISA kit, R&D Systems, CAT. No. DY220).
as §1

[4] = biological target: T1, human VEGF165 ligand; test: cell-based or functional assay; remark: listed apart in the source
[5] = biological target: T2, human PDGF-BB ligand; test: native PAGE electromobility gel shift; alone or together with VEGF165
Procedure: EPS1104P was mixed with VEGF₁₆₅ (#C083, Novoprotein, Shanghai, China), PDGF-BB (#C199, Novoprotein, Shanghai, China) and VEGF+PDGF-BB, and incubated in an ice bath for 30 min. 40 μL of the above three incubation mixtures and EPS1104P were added to 10 μl of 5× Loading buffer (#ES005, Wanshenghaotian, Shanghai, China), respectively, and the four samples were loaded on a native PAGE gel (#NGSH2001-8T, Wanshenghaotian, Shanghai, China). The electrophoresis was run at 70 V for 6 hours. The gel was stained with Coomassie blue and then bleached. […] It is also possible to combine EPS1104P with both VEGF165 and PDGF-BB to form a stable complex.

T1 sequence (P15692 other isoform, or with tags, fused parts or gaps limits assumed): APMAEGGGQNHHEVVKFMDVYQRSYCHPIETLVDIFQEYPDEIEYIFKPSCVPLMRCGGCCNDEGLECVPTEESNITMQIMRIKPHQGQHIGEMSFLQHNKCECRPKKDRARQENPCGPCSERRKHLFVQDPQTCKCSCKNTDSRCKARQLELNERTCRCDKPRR

Binder | Inhibition of HUVEC cells proliferation, IC50 [1] | IC50 [2] | IC50 [3] | Inhibition of HUVEC cells proliferation, IC50 [4] | binding result [5]
PDGFRαD123-PAS(200)-VEGFR1D2/R2D3 fusion protein (receptor, glycosylated (as purified from MEXi-293E medium), also called EPS1108P) QLSLPSILPNENEKVVQLNSSFSLRCFGESEVSWQYPMSEEESSDVEIRNEENNSGLFVTVLEVSSASAAHTGLYTCYYNHTQTEENELEGRHIYIYVPDPDVAFVPLGMTDYLVIVEDDDSAIIPCRTTDPETPVTLHNSEGVVPASYDSRQGFNGTFTVGPYICEATVKGKKFQTIPFNVYALKATSELDLEMEALKTVYKSGETIVVTCAVFNNEVVDLQWTYPGEVKGKGITMLEEIKVPSIKLVYTLTVPEATVKDSGDYECAARQATREVKEMKKVTISVHEKGASPAAPAPASPAAPAPSAPAASPAAPAPASPAAPAPSAPAASPAAPAPASPAAPAPSAPAASPAAPAPASPAAPAPSAPAASPAAPAPASPAAPAPSAPAASPAAPAPASPAAPAPSAPAASPAAPAPASPAAPAPSAPAASPAAPAPASPAAPAPSAPAASPAAPAPASPAAPAPSAPAASPAAPAPASPAAPAPSAPAASDTGRPFVEMYSEIPEIIHMTEGRELVIPCRVTSPNITVTLKKFPLDTLIPDGKRIIWDSRKGFIISNATYKEIGLLTCEATVNGHLYKTNYLTHRQTNTIIDVVLSPSHGIELSVGEKLVLNCTARTELNVGIDFNWEYPSSKHQHKKLVNRDLKTQSGSEMKKFLSTLTIDGVTRSDQGLYTCAASSGLMTKKNSTFVRVHEKHHHHHHA | 28.5 nM | 0.32 nM | 66.3 nM | – | –
PDGFRαD123-(GGGGS)3-PAS(200)-(GGGGS)3-VEGFR1D2/R2D3 (receptor, also called EPS1106P) QLSLPSILPNENEKVVQLNSSFSLRCFGESEVSWQYPMSEEESSDVEIRNEENNSGLFVTVLEVSSASAAHTGLYTCYYNHTQTEENELEGRHIYIYVPDPDVAFVPLGMTDYLVIVEDDDSAIIPCRTTDPETPVTLHNSEGVVPASYDSRQGFNGTFTVGPYICEATVKGKKFQTIPFNVYALKATSELDLEMEALKTVYKSGETIVVTCAVFNNEVVDLQWTYPGEVKGKGITMLEEIKVPSIKLVYTLTVPEATVKDSGDYECAARQATREVKEMKKVTISVHEKGGGGGSGGGGSGGGGSASPAAPAPASPAAPAPSAPAASPAAPAPASPAAPAPSAPAASPAAPAPASPAAPAPSAPAASPAAPAPASPAAPAPSAPAASPAAPAPASPAAPAPSAPAASPAAPAPASPAAPAPSAPAASPAAPAPASPAAPAPSAPAASPAAPAPASPAAPAPSAPAASPAAPAPASPAAPAPSAPAASPAAPAPASPAAPAPSAPAGGGGSGGGGSGGGGSSDTGRPFVEMYSEIPEIIHMTEGRELVIPCRVTSPNITVTLKKFPLDTLIPDGKRIIWDSRKGFIISNATYKEIGLLTCEATVNGHLYKTNYLTHRQTNTIIDVVLSPSHGIELSVGEKLVLNCTARTELNVGIDFNWEYPSSKHQHKKLVNRDLKTQSGSEMKKFLSTLTIDGVTRSDQGLYTCAASSGLMTKKNSTFVRVHEKHHHHHH | 39.7 nM | 0.555 nM | – | – | –
VEGFR1D2/R2D3-(GGGGS)3-PAS(200)-(GGGGS)3-PDGFRαD123 (receptor, also called EPS1107P) SDTGRPFVEMYSEIPEIIHMTEGRELVIPCRVTSPNITVTLKKFPLDTLIPDGKRIIWDSRKGFIISNATYKEIGLLTCEATVNGHLYKTNYLTHRQTNTIIDVVLSPSHGIELSVGEKLVLNCTARTELNVGIDFNWEYPSSKHQHKKLVNRDLKTQSGSEMKKFLSTLTIDGVTRSDQGLYTCAASSGLMTKKNSTFVRVHEKGGGGSGGGGSGGGGSASPAAPAPASPAAPAPSAPAASPAAPAPASPAAPAPSAPAASPAAPAPASPAAPAPSAPAASPAAPAPASPAAPAPSAPAASPAAPAPASPAAPAPSAPAASPAAPAPASPAAPAPSAPAASPAAPAPASPAAPAPSAPAASPAAPAPASPAAPAPSAPAASPAAPAPASPAAPAPSAPAASPAAPAPASPAAPAPSAPAGGGGSGGGGSGGGGSQLSLPSILPNENEKVVQLNSSFSLRCFGESEVSWQYPMSEEESSDVEIRNEENNSGLFVTVLEVSSASAAHTGLYTCYYNHTQTEENELEGRHIYIYVPDPDVAFVPLGMTDYLVIVEDDDSAIIPCRTTDPETPVTLHNSEGVVPASYDSRQGFNGTFTVGPYICEATVKGKKFQTIPFNVYALKATSELDLEMEALKTVYKSGETIVVTCAVFNNEVVDLQWTYPGEVKGKGITMLEEIKVPSIKLVYTLTVPEATVKDSGDYECAARQATREVKEMKKVTISVHEKGHHHHHH | 53.1 nM | 0.304 nM | – | – | –
PDGFRαD123-PAS(400)-VEGFR1D2/R2D3 (receptor, also called EPS1104P) QLSLPSILPNENEKVVQLNSSFSLRCFGESEVSWQYPMSEEESSDVEIRNEENNSGLFVTVLEVSSASAAHTGLYTCYYNHTQTEENELEGRHIYIYVPDPDVAFVPLGMTDYLVIVEDDDSAIIPCRTTDPETPVTLHNSEGVVPASYDSRQGFNGTFTVGPYICEATVKGKKFQTIPFNVYALKATSELDLEMEALKTVYKSGETIVVTCAVFNNEVVDLQWTYPGEVKGKGITMLEEIKVPSIKLVYTLTVPEATVKDSGDYECAARQATREVKEMKKVTISVHEKGASPAAPAPASPAAPAPSAPAASPAAPAPASPAAPAPSAPAASPAAPAPASPAAPAPSAPAASPAAPAPASPAAPAPSAPAASPAAPAPASPAAPAPSAPAASPAAPAPASPAAPAPSAPAASPAAPAPASPAAPAPSAPAASPAAPAPASPAAPAPSAPAASPAAPAPASPAAPAPSAPAASPAAPAPASPAAPAPSAPAASPAAPAPASPAAPAPSAPAASPAAPAPASPAAPAPSAPAASPAAPAPASPAAPAPSAPAASPAAPAPASPAAPAPSAPAASPAAPAPASPAAPAPSAPAASPAAPAPASPAAPAPSAPAASPAAPAPASPAAPAPSAPAASPAAPAPASPAAPAPSAPAASPAAPAPASPAAPAPSAPAASPAAPAPASPAAPAPSAPASDTGRPFVEMYSEIPEIIHMTEGRELVIPCRVTSPNITVTLKKFPLDTLIPDGKRIIWDSRKGFIISNATYKEIGLLTCEATVNGHLYKTNYLTHRQTNTIIDVVLSPSHGIELSVGEKLVLNCTARTELNVGIDFNWEYPSSKHQHKKLVNRDLKTQSGSEMKKFLSTLTIDGVTRSDQGLYTCAASSGLMTKKNSTFVRVHEKHHHHHH | – | 0.495 nM | – | 1.43 nM | binds
VEGFR1D2/R2D3-PAS(200)-PDGFRαD123 (receptor, also called EPS1105P) SDTGRPFVEMYSEIPEIIHMTEGRELVIPCRVTSPNITVTLKKFPLDTLIPDGKRIIWDSRKGFIISNATYKEIGLLTCEATVNGHLYKTNYLTHRQTNTIIDVVLSPSHGIELSVGEKLVLNCTARTELNVGIDFNWEYPSSKHQHKKLVNRDLKTQSGSEMKKFLSTLTIDGVTRSDQGLYTCAASSGLMTKKNSTFVRVHEKASPAAPAPASPAAPAPSAPAASPAAPAPASPAAPAPSAPAASPAAPAPASPAAPAPSAPAASPAAPAPASPAAPAPSAPAASPAAPAPASPAAPAPSAPAASPAAPAPASPAAPAPSAPAASPAAPAPASPAAPAPSAPAASPAAPAPASPAAPAPSAPAASPAAPAPASPAAPAPSAPAASPAAPAPASPAAPAPSAPAQLSLPSILPNENEKVVQLNSSFSLRCFGESEVSWQYPMSEEESSDVEIRNEENNSGLFVTVLEVSSASAAHTGLYTCYYNHTQTEENELEGRHIYIYVPDPDVAFVPLGMTDYLVIVEDDDSAIIPCRTTDPETPVTLHNSEGVVPASYDSRQGFNGTFTVGPYICEATVKGKKFQTIPFNVYALKATSELDLEMEALKTVYKSGETIVVTCAVFNNEVVDLQWTYPGEVKGKGITMLEEIKVPSIKLVYTLTVPEATVKDSGDYECAARQATREVKEMKKVTISVHEKGHHHHHH | 28.4 nM | 0.546 nM | – | – | –
